Measurements from patent US20210277110A1 (Janssen / Centocor, published 2021).
Where two headings read alike, the source gives them in different places.

What was measured:
[1] = biological target: T1, Extracellular domain of human PD1 (huPD1-ECD) (human, UniProt Q15116 25-169, biotinylated in the ligand inhibition assay (sites not given)); assay: SPR ProteOn, captured mAb, huPD1-ECD analyte;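 on Kd: SPR on ProteOn XPR36, antibodies captured by anti-IgG Fc on a GLC chip, data fitted with a Langmuir 1:1 model to give on-rate, off-rate and equilibrium KD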
T1 construct: Expressed with a hexahistidine tag or as Fc fusion; also called biotinylated PD-1
T1 sequence (Q15116 25-169 limits assumed): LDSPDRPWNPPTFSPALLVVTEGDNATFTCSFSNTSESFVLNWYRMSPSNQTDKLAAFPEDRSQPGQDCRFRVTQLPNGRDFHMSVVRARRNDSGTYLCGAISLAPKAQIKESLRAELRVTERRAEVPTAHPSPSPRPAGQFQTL

[2] = biological target: T1, Extracellular domain of human PD1 …; assay: SPR ProteOn, captured mAb, huPD1-ECD analyte; approximation (chi2 > 20%)
Experimental: (§1) Affinity measurements using Surface Plasmon Resonance (SPR) were performed using a ProteOn XPR36 system. A biosensor surface was prepared by coupling a mixture of anti-IgG Fc modified alginate polymer layer surface of a GLC chip using the manufacturer instructions for amine-coupling chemistry. […] The collected data were processed and fitted to a Langmuir 1:1 binding model. The result for each mAb was reported in the format of kₒₙ (On-rate), koff (Off-rate) and KD (equilibrium dissociation constant).
STDEV were calculated for 3 or more replicates generated for human and cyno proteins. If less than 3 replicates were calculated, RANGE was indicated. RANGE is defined as the low and high values for the replicates tested.

[3] = biological target: T2, Extracellular domain of cyno PD1 (cPD1-ECD) (Macaca fascicularis (cynomolgus)); assay: SPR ProteOn, cynoPD1-ECD; RANGE low replicate
T2 construct: Expressed with a hexahistidine tag or as Fc fusion; also called cynoPD1-ECD; cynoPD-1-ECD
T2 chain: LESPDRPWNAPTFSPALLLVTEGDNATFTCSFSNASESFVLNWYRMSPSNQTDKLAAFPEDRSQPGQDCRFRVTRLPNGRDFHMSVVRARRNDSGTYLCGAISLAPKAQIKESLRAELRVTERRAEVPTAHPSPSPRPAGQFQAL
Experimental: as §1
(§2) STDEV were calculated for 3 or more replicates generated for human and cyno proteins. If less than 3 replicates were calculated, RANGE is indicated. RANGE is defined as the low and high values for the replicates tested. For samples without RANGE or STDEV, only one experiment was performed

[4] = biological target: T2, Extracellular domain of cyno PD1 …; assay: SPR ProteOn, cynoPD1-ECD; RANGE low replicate; RANGE low replicate
Experimental: as §1, §2

[5] = biological target: T2, Extracellular domain of cyno PD1 …; assay: SPR ProteOn, cynoPD1-ECD; RANGE high replicate; RANGE high replicate
[6] = biological target: T1, Extracellular domain of human PD1 …; assay: MSD ligand inhibition, competitor coated cynoPDL1-ECD
Experimental: (§3) The ligand inhibition assay design was MSD (Mescoscale Discovery) based. A MSD plate was directly coated with ligand (cynoPDL1-ECD, huPDL1-ECD or huPDL2-ECD) and incubated overnight at 4° C. The following day, the coating solution was removed and the plate was blocked. […] Depending on the panel of antibodies to be tested, the antibodies were tested as titrations or at a fixed concentration.

[7] = biological target: T2, Extracellular domain of cyno PD1 …; assay: SPR ProteOn, cynoPD1-ECD; RANGE high replicate
Experimental: as §1, §2

[8] = biological target: T1, Extracellular domain of human PD1 …; assay: SPR ProteOn, captured mAb, huPD1-ECD analyte; remark: listed apart in the source
Experimental: as §1
(§4) STDEV were calculated for 3 or more replicates generated for human and cyno proteins. If less than 3 replicates were calculated, RANGE was indicated. RANGE is defined as the low and high values for the replicates tested. For samples in the Table 10 or Table 11 without value indicated in RANGE or STDEV, only one experiment was performed.

[9] = biological target: T1, Extracellular domain of human PD1 …; assay: SPR ProteOn, huPD1-ECD; RANGE low replicate; RANGE low replicate
Experimental: as §1, §2

[10] = biological target: T1, Extracellular domain of human PD1 …; assay: SPR ProteOn, huPD1-ECD; RANGE low replicate
Experimental: as §1, §2

[11] = biological target: T2, Extracellular domain of cyno PD1 …; assay: SPR ProteOn, cynoPD1-ECD; RANGE high replicate; RANGE high replicate
Experimental: as §1, §2

[12] = biological target: T2, Extracellular domain of cyno PD1 …; assay: SPR ProteOn, captured mAb, cynoPD1-ECD analyte
[13] = biological target: T1, Extracellular domain of human PD1 …; assay: SPR ProteOn, huPD1-ECD; RANGE high replicate
Experimental: as §1, §2

[14] = biological target: T2, Extracellular domain of cyno PD1 …; assay: SPR ProteOn, captured mAb, cynoPD1-ECD analyte
Experimental: as §1, §2

[15] = biological target: T3, Full length human PD1 (huPD1) on cells (human, UniProt Q15116 25-288); assay: flow cytometry, PHA-stimulated Jurkat cells
T3 construct: on T cells of human donors in the MLR and CMV assays (functional); also called PD-1 on Jurkat cells
T3 sequence (Q15116 25-288 limits assumed): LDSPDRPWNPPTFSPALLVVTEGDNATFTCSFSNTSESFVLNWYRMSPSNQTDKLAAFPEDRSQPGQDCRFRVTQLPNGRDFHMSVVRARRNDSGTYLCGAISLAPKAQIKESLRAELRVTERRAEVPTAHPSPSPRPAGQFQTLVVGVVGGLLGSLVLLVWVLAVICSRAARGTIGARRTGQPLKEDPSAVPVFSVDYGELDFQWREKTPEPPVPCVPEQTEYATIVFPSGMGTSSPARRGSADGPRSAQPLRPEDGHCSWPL
Experimental: (§5) Jurkat cells were stimulated overnight with 20 ng/ml of PHA, harvested, washed, and checked for viability. The cells were then incubated at 6-10° C. for 45-60 minutes with various concentrations of test antibodies, washed and incubated at 6-10° C. for 45-60 minutes with FITC-labeled goat anti-human IgG. The cells were washed and fixed with BD Cytofix, refrigerated overnight and analyzed on a MACSQuant flow cytometer. The percentage of PD-1 positive cells at each antibody concentration was plotted vs log of the antibody concentration and EC₅₀ values were generated in Prism.

[16] = biological target: T1, Extracellular domain of human PD1 …; assay: MSD ligand inhibition, competitor coated cynoPDL1-ECD; remark: listed apart in the source
Experimental: The ligand inhibition assay design was MSD (Mescoscale Discovery) based. A MSD plate was directly coated with ligand (cynoPDL1-ECD, huPDL1-ECD or huPDL2-ECD) and incubated overnight at 4° C. The following day, the coating solution was removed and the plate was blocked. […] Depending on the panel of antibodies to be tested, the antibodies were tested as titrations or at a fixed concentration. […] The mAbs that were positive for inhibition of ligand binding at one concentration were also tested in dose responses for inhibition of various PD-1 ligands.
Select Fabs were cloned as IgG2sigma isotype and characterized for their Jurkat cell binding and cynomolgus PD-L1 ligand inhibition at concentrations 1 μg/ml and 10 μg/ml.

[17] = biological target: T3, Full length human PD1 (huPD1) on cells; assay: flow cytometry, PHA-stimulated Jurkat cells; remark: listed apart in the source
Experimental: as §5

[18] = biological target: T2, Extracellular domain of cyno PD1 …; assay: SPR ProteOn, cynoPD1-ECD; RANGE low replicate
Experimental: as §1, §4

[19] = biological target: T1, Extracellular domain of human PD1 …; assay: SPR ProteOn, captured mAb; antigen species not given
[20] = biological target: T1, Extracellular domain of human PD1 …; assay: SPR ProteOn, huPD1-ECD; RANGE high replicate; RANGE high replicate
Experimental: as §1, §2

[21] = biological target: T1, Extracellular domain of human PD1 …; assay: MSD ligand inhibition, competitor coated huPDL1-ECD
Experimental: as §3

[22] = biological target: T1, Extracellular domain of human PD1 …; assay: SPR ProteOn, comparison with PD1B114
[23] = biological target: T2, Extracellular domain of cyno PD1 …; assay: SPR ProteOn, comparison with PD1B114
[24] = biological target: T2, Extracellular domain of cyno PD1 …; assay: SPR ProteOn, cynoPD1-ECD; RANGE high replicate
Experimental: as §1, §4

[25] = biological target: T1, Extracellular domain of human PD1 …; assay: MSD ligand inhibition, competitor coated huPDL2-ECD
Experimental: as §3

B1: PD1B11 (antibody, V domains shown)
VH: QVQLVQSGAEVKKPGSSVKVSCKASGGTFSSYAISWVRQAPGQGLEWMGGIIPIFGTANYAQKFQGRVTITADESTSTAYMELSSLRSEDTAVYYCARPGLAAAYDTGSLDYWGQGTLVTVSS
VL: EIVLTQSPATLSLSPGERATLSCRASQSVSSYLAWYQQKPGQAPRLLIYDASNRATGIPARFSGSGSGTDFTLTISSLEPEDFAVYYCQQRSNWPLTFGQGTKVEIK
notes: Tested as IgG2sigma/kappa; also called PD1H3/PH9L3
In the case of B1, the Kd [1] is reported as 9.7 nM, the koff [1] is reported as 0.00905 s⁻¹ and the kon [1] is reported as 933000 M⁻¹ s⁻¹. The Kd [2] was ~17 nM, the Kd [3] was 26.8 nM and the kon [3] was 349000 M⁻¹ s⁻¹. It also gave a koff [4] of 0.00938 s⁻¹, a koff [5] of 0.01 s⁻¹ and a kon [5] of 301000 M⁻¹ s⁻¹. The IC50 [6] was 0.017 to 0.018 µg/mL, the Kd [7] was 27.1 nM and the kon [7] was 350000 M⁻¹ s⁻¹. For the same binder, the koff [8] was 0.00852 s⁻¹, the kon [8] was 516000 M⁻¹ s⁻¹ and the koff [9] was 0.00867 s⁻¹. For the same binder, the Kd [10] was 9.6 nM, the kon [10] was 884000 M⁻¹ s⁻¹ and the koff [11] was 0.00946 s⁻¹. It also gave a Kd [12] of 31.3 nM, a koff [12] of 0.00917 s⁻¹ and a kon [12] of 293000 M⁻¹ s⁻¹. The Kd [13] was 9.81 nM, the Kd [14] was 26.9 nM and the koff [14] was 0.00942 s⁻¹. The kon [14] was 350000 M⁻¹ s⁻¹, the EC50 [15] was 0.05 µg/mL and the “percentage ligand not blocked at 1 µg/ml” value [16] was 5%. The “percentage ligand not blocked at 10 µg/ml” value [16] was 5%, the EC50 [17] was 0.03 to 0.24 µg/mL and the Kd [18] was 27.7 nM. The koff [18] was 0.008 s⁻¹, the kon [18] was 285000 M⁻¹ s⁻¹ and the Kd [19] was 19.2 nM. For the same binder, the koff [19] was 0.00896 s⁻¹, the kon [19] was 468000 M⁻¹ s⁻¹ and the koff [20] was 0.00943 s⁻¹. For the same binder, the kon [20] was 982000 M⁻¹ s⁻¹, the IC50 [21] was 0.019 µg/mL and the “fold tighter affinity compared to PD1B114” value [22] was ~3 fold. The “fold tighter affinity compared to PD1B114” value [23] was ~2 fold, the Kd [24] was 35.1 nM and the IC50 [25] was 0.029 µg/mL.
